Broadly, the stoichiometry N is a count of units in the complex or per binding partner.

Stoichiometry N data for 1 substance are collected here from paper doi:10.1101/2023.01.27.525930.

This assay concerns the target Polyketide synthase 13 (Pks13) of Mycobacterium smegmatis (Mycobacterium smegmatis) (UniProt A0R617). As to the kind of experiment: native gel or EMSA; blue native PAGE of the protein of both sizing-column peaks; purified in β-DDM.

On to “Polyketide synthase 13 (Pks13) of Mycobacterium smegmatis (from UniProt A0R617 1-1816) (enzyme)”, for which the stoichiometry N came to 2.
